Measurements reported in the supplement of paper PMC12764529.
± gives the half width of the 95% confidence interval.

Columns and labels:
[1] = folding stability dG unfold from trypsin proteolysis; higher = more stable
Outline: (§1)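 Unfolding free energy was derived, per protease or combined, against a sequence-predicted unfolded-state K50 and a shared folded-state K50, starting from K50 inferred by Bayesian fitting of sequencing counts. Digestion with trypsin and chymotrypsin was carried out on designed mini-proteins under 80 residues without cysteine in a PA-tagged cDNA display construct. Only designs with AlphaFold2 dimer inter-PAE above 15 were kept.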

[2] = folding stability dG unfold from chymotrypsin proteolysis; higher = more stable
Outline: as §1

[3] = folding stability dG unfold (combined trypsin and chymotrypsin); higher = more stable
Outline: as §1

## SAGGSAGGGYELRVTVYDPRTGKPVAEATFTATSPEEAEARFEEIRRALPPEYLVFAEIRPVPESAGGSAGG [r6_688_TrMRF]
[1]
  folding stability dG unfold: 4.94 ± 0.38 kcal/mol
[2]
  folding stability dG unfold: 5.19 ± 0.13 kcal/mol
[3]
  folding stability dG unfold: 5.25 ± 0.11 kcal/mol

## SAGGSAGGIEAVREALEDMPPGEEKEITIPVPGDPNYYIKFTIRTKGNKIKIPIEIEPMPPGQMSAGGSAGG [r6_393_TrROS]
[1]
  folding stability dG unfold: 0.632 ± 0.16 kcal/mol
[2]
  folding stability dG unfold: 1.63 ± 0.39 kcal/mol
[3]
  folding stability dG unfold: 1.08 ± 0.38 kcal/mol

## SAGGSAGGIHPDVKVKLVKIVSVEEGEGEVVAKALVELPNGERVVVSSEVLKELLEENPDVDVSSAGGSAGG [r6_77_TrMRF]
[1]
  folding stability dG unfold: 0.301 ± 0.056 kcal/mol
[2]
  folding stability dG unfold: 1.02 ± 0.067 kcal/mol
[3]
  folding stability dG unfold: 0.819 ± 0.18 kcal/mol

## SAGGSAGGIKAPDGQEYHIILFPITIPMEQKVERPMPDGDPRPETRTVSIKIPIWFAIPPGQKISAGGSAGG [r6_526_TrROS]
[1]
  folding stability dG unfold: 1.14 ± 0.029 kcal/mol
[2]
  folding stability dG unfold: 1.5 ± 0.12 kcal/mol
[3]
  folding stability dG unfold: 1.29 ± 0.13 kcal/mol

## SAGGSAGGIKEILKEARENPENAESVTIRIPMEVPVTRYDPDNGEPETHPHPVPGEITIPPDDLSAGGSAGG [r6_560_TrROS]
[1]
  folding stability dG unfold: 0.435 ± 0.019 kcal/mol
[2]
  folding stability dG unfold: 1.16 ± 0.043 kcal/mol
[3]
  folding stability dG unfold: 0.889 ± 0.051 kcal/mol

## SAGGSAGGIKYRVMVHNPESGRWHRIDDIEIDPPDGRIKIRFPGNGKEITIPPGYPIMISPDMLSAGGSAGG [r6_885_TrROS]
[1]
  folding stability dG unfold: 0.662 ± 0.1 kcal/mol
[2]
  folding stability dG unfold: 0.793 ± 0.17 kcal/mol
[3]
  folding stability dG unfold: 0.795 ± 0.071 kcal/mol

## SAGGSAGGIMIDSPEQMEEFAKDFFQNGYHEVPIHVMDPNGNWQTFPFTIEVPPPKPEPDPGKKSAGGSAGG [r6_258_TrROS]
[1]
  folding stability dG unfold: -0.648 ± 0.12 kcal/mol
[2]
  folding stability dG unfold: 0.411 ± 0.25 kcal/mol
[3]
  folding stability dG unfold: 0.111 ± 0.29 kcal/mol

## SAGGSAGGITIRDPDNGIEVKILKITPNHMIIQAEFPNGRNYMIEMPPDSLKPGDEIPMTVHPVSAGGSAGG [r6_152_TrROS]
[1]
  folding stability dG unfold: -0.008 ± 0.17 kcal/mol
[2]
  folding stability dG unfold: -0.14 ± 0.41 kcal/mol
[3]
  folding stability dG unfold: -0.148 ± 0.3 kcal/mol

## SAGGSAGGKEFEIEKVEITVENGTITIRMIVRDKETNEYYEVEKTITFDPETKELHVEIKVKKVSAGGSAGG [r6_604_TrROS_Hall]
[1]
  folding stability dG unfold: 4.19 ± 0.13 kcal/mol
[2]
  folding stability dG unfold: 3.23 ± 0.1 kcal/mol
[3]
  folding stability dG unfold: 3.91 ± 0.16 kcal/mol

## SAGGSAGGKEFKIVKVEIEEREDGRLKIHITVEPGATPEEVKKALEELGFEVEEVEVVEVEEEESAGGSAGG [r6_543_TrROS_Hall]
[1]
  folding stability dG unfold: 1.93 ± 0.086 kcal/mol
[2]
  folding stability dG unfold: 2.368 ± 0.023 kcal/mol
[3]
  folding stability dG unfold: 2.24 ± 0.092 kcal/mol

## SAGGSAGGKEKLIVKIKIEKKVKLENGEEKKVKKTIVVEMTPEEVKELLKKLKKENVTEVEIFPSAGGSAGG [r6_984_TrROS_Hall]
[1]
  folding stability dG unfold: 2.7 ± 0.17 kcal/mol
[2]
  folding stability dG unfold: 2.51 ± 0.31 kcal/mol
[3]
  folding stability dG unfold: 2.55 ± 0.26 kcal/mol

## SAGGSAGGKEVKIEIYDSDDGILLVEVPDLDDAVEAVEKLGVELELVPYDPEKGRLLLRLRIPGSAGGSAGG [r6_510_TrMRF]
[1]
  folding stability dG unfold: 0.26 ± 0.21 kcal/mol
[2]
  folding stability dG unfold: 0.8 ± 0.2 kcal/mol
[3]
  folding stability dG unfold: 0.64 ± 0.16 kcal/mol

## SAGGSAGGKGGKPKIKLEPINTNPNGWQTFRFEVTPEAIDDLMDDFPNVQVERHPGEMYITVRNSAGGSAGG [r6_395_TrROS]
[1]
  folding stability dG unfold: -0.418 ± 0.56 kcal/mol
[2]
  folding stability dG unfold: -0.0427 ± 0.39 kcal/mol
[3]
  folding stability dG unfold: -0.104 ± 0.23 kcal/mol

## SAGGSAGGKIAVIPYVPEEDIPPELRELFGKEGSLSPEEFQELFAEAVARELGEEGAIDAVIVESAGGSAGG [r6_654_TrMRF]
[1]
  folding stability dG unfold: 0.618 ± 0.032 kcal/mol
[2]
  folding stability dG unfold: 0.721 ± 0.037 kcal/mol
[3]
  folding stability dG unfold: 0.778 ± 0.15 kcal/mol

## SAGGSAGGKIEEIAKKLNLEVESIEYDKETKKVTVTIKVNGKLYKIEIYVENGKIVKIKIEELPSAGGSAGG [r6_373_TrROS_Hall]
[1]
  folding stability dG unfold: 3.3 ± 0.2 kcal/mol
[2]
  folding stability dG unfold: 4.3 ± 0.25 kcal/mol
[3]
  folding stability dG unfold: 4.01 ± 0.23 kcal/mol

## SAGGSAGGKIIINGKEIEPGETITLPNGLKLEVVDGKIKLVVRDEETGEEKEITLSAEELKKLLSAGGSAGG [r6_940_TrROS_Hall]
[1]
  folding stability dG unfold: 2.65 ± 0.12 kcal/mol
[2]
  folding stability dG unfold: 3.26 ± 0.086 kcal/mol
[3]
  folding stability dG unfold: 3.09 ± 0.061 kcal/mol

## SAGGSAGGKILVIEIEVDSPEKAVEKAKEIVKELGLPESVKIKEIVFFKEEGDKYRALVLVDLDSAGGSAGG [r6_282_TrMRF]
[1]
  folding stability dG unfold: 3.66 ± 0.23 kcal/mol
[2]
  folding stability dG unfold: 4.09 ± 0.095 kcal/mol
[3]
  folding stability dG unfold: 3.95 ± 0.2 kcal/mol

## SAGGSAGGKIRVEVEVEPLPGPEEGGRLLRVRVRVYNENGELLEEIEFPARSPEEAEERLRKAASAGGSAGG [r6_974_TrMRF]
[1]
  folding stability dG unfold: 2.05 ± 0.044 kcal/mol
[2]
  folding stability dG unfold: 3.46 ± 0.082 kcal/mol
[3]
  folding stability dG unfold: 3.15 ± 0.14 kcal/mol

## SAGGSAGGKITINGKEYEIVEVKYDKETNTLHFLIKNKDGTLLKISISPNGKIEIKEVPAEELLSAGGSAGG [r6_699_TrROS_Hall]
[1]
  folding stability dG unfold: 3.41 ± 0.23 kcal/mol
[2]
  folding stability dG unfold: 3.74 ± 0.12 kcal/mol
[3]
  folding stability dG unfold: 3.78 ± 0.23 kcal/mol

## SAGGSAGGKKEIKIYLVSDLPEEDAIETAEKIKKGLAEELGVSPEELNITVEVAILDPENLELNPESAGGSA [r15_918_TrMRF]
[1]
  folding stability dG unfold: 0.179 ± 0.049 kcal/mol
[2]
  folding stability dG unfold: 0.0161 ± 0.048 kcal/mol
[3]
  folding stability dG unfold: 0.1 ± 0.15 kcal/mol

## SAGGSAGGKKIEMKIIKNEDGTKLIVFKSKEEAEEALKKAGYEVKIVSVNEEKGYVVIEIRKKKSAGGSAGG [r6_510_TrROS_Hall]
[1]
  folding stability dG unfold: 1.17 ± 0.043 kcal/mol
[2]
  folding stability dG unfold: 2.21 ± 0.04 kcal/mol
[3]
  folding stability dG unfold: 1.9 ± 0.072 kcal/mol

## SAGGSAGGKKKKKPPKKKYFYVEIEIELTPEEIEKLKELFPDVKVEVEEKDGKLRVRITVRVKLSAGGSAGG [r6_685_TrROS_Hall]
[1]
  folding stability dG unfold: 2.79 ± 0.16 kcal/mol
[2]
  folding stability dG unfold: 3.48 ± 0.05 kcal/mol
[3]
  folding stability dG unfold: 3.26 ± 0.087 kcal/mol

## SAGGSAGGKKKVIEITVKITLFNENGEEVATFEAKITIIEDKETKEYYAVITFKDGSTLVIKLPSAGGSAGG [r6_923_TrROS_Hall]
[1]
  folding stability dG unfold: 3.69 ± 0.2 kcal/mol
[2]
  folding stability dG unfold: 5.12 ± 0.2 kcal/mol
[3]
  folding stability dG unfold: 4.87 ± 0.47 kcal/mol

## SAGGSAGGKKKYRALITLRSKDGKPIAPIEIETDSPEELLKTAKKIIEEATKENEPVEIKVEEYSAGGSAGG [r6_285_TrMRF]
[1]
  folding stability dG unfold: 1.09 ± 0.054 kcal/mol
[2]
  folding stability dG unfold: 1.8 ± 0.093 kcal/mol
[3]
  folding stability dG unfold: 1.59 ± 0.11 kcal/mol

## SAGGSAGGKKVIVKIKIKVKDKETGEEKEIEITLEFETEEEAKAAIEALKALPPGVEIKIELLPSAGGSAGG [r6_999_TrROS_Hall]
[1]
  folding stability dG unfold: 4.42 ± 0.21 kcal/mol
[2]
  folding stability dG unfold: 2.72 ± 0.097 kcal/mol
[3]
  folding stability dG unfold: 4.19 ± 0.28 kcal/mol

## SAGGSAGGKKYRVVVYNPETGEWVEVEEVEFDPETGEVRVRLPGSGKEVTIPKDYPVYLNPELDSAGGSAGG [r6_884_TrMRF]
[1]
  folding stability dG unfold: 2.21 ± 0.035 kcal/mol
[2]
  folding stability dG unfold: 3.163 ± 0.03 kcal/mol
[3]
  folding stability dG unfold: 2.9 ± 0.045 kcal/mol

## SAGGSAGGKLKKFKIKEIKIEKNKETNTYTVTITLENGEKLTITAKSKEDAEKALRKLKEAGLLSAGGSAGG [r6_65_TrROS_Hall]
[1]
  folding stability dG unfold: 2.81 ± 0.086 kcal/mol
[2]
  folding stability dG unfold: 3.39 ± 0.098 kcal/mol
[3]
  folding stability dG unfold: 3.02 ± 0.2 kcal/mol

## SAGGSAGGKLSIPIHIPGLTPEEARKIVKYFAAAGIPPDNVTIEVQPVPPVPPMTPEEMEKHNKSAGGSAGG [r6_246_TrROS]
[1]
  folding stability dG unfold: -0.288 ± 0.24 kcal/mol
[2]
  folding stability dG unfold: 0.988 ± 0.13 kcal/mol
[3]
  folding stability dG unfold: 0.614 ± 0.2 kcal/mol

## SAGGSAGGKPEVKITLVIEVETEEELKALAEELAALLGAEVEVRVERREDGRLLVTVTITVPAESAGGSAGG [r6_719_TrROS_Hall]
[1]
  folding stability dG unfold: 3.28 ± 0.14 kcal/mol
[2]
  folding stability dG unfold: 2.77 ± 0.12 kcal/mol
[3]
  folding stability dG unfold: 2.97 ± 0.096 kcal/mol

## SAGGSAGGKPKIIEEKELEFTRKDGKKVKIKLVKNEDGKVFAFNKDTGKVITLPLDELKALLKSSAGGSAGG [r6_579_TrROS_Hall]
[1]
  folding stability dG unfold: 1.87 ± 0.052 kcal/mol
[2]
  folding stability dG unfold: 2.37 ± 0.024 kcal/mol
[3]
  folding stability dG unfold: 2.27 ± 0.054 kcal/mol

## SAGGSAGGKPKMTFPITDIYPPPGGGNVFIRIQSDDKPREFPFPNLENLEIEKDPEDGTVKIKWSAGGSAGG [r6_806_TrROS]
[1]
  folding stability dG unfold: 0.129 ± 0.36 kcal/mol
[2]
  folding stability dG unfold: 0.307 ± 0.39 kcal/mol
[3]
  folding stability dG unfold: -0.0766 ± 0.31 kcal/mol

## SAGGSAGGKSYVRLEVYRRNPETDEWEKIRTEVLETDAASGEEVRRRALERVPEDYLVKVELFPSAGGSAGG [r6_623_TrMRF]
[1]
  folding stability dG unfold: 2.01 ± 0.046 kcal/mol
[2]
  folding stability dG unfold: 2.872 ± 0.028 kcal/mol
[3]
  folding stability dG unfold: 2.62 ± 0.062 kcal/mol

## SAGGSAGGKTIEITIKLEDGKELKIKIDSPEELDKITSVELIGPGKIKITVNGKTIEITIKPKPSAGGSAGG [r6_206_TrROS_Hall]
[1]
  folding stability dG unfold: 3.45 ± 0.14 kcal/mol
[2]
  folding stability dG unfold: 2.77 ± 0.072 kcal/mol
[3]
  folding stability dG unfold: 3.2 ± 0.16 kcal/mol

## SAGGSAGGKVRVITVKPGETITVEGLPPGAVLITLPDGSVKEFPAGATIKVPPSAEIVVVEKEDSAGGSAGG [r6_866_TrROS_Hall]
[1]
  folding stability dG unfold: 0.486 ± 0.022 kcal/mol
[2]
  folding stability dG unfold: 0.885 ± 0.04 kcal/mol
[3]
  folding stability dG unfold: 0.778 ± 0.1 kcal/mol

## SAGGSAGGKYEIVEVEEKEVNGEKYLIFKVKNENGEELLITVSKEDAEKILASLPPGATVEILPSAGGSAGG [r6_111_TrROS_Hall]
[1]
  folding stability dG unfold: 3.49 ± 0.56 kcal/mol
[2]
  folding stability dG unfold: 3.76 ± 0.14 kcal/mol
[3]
  folding stability dG unfold: 3.84 ± 0.25 kcal/mol

## SAGGSAGGLEEELKLAKENPGEFEGVTVKLESVIEVTTTDPTTGKPTTKLVRVESEITFPPGLKSAGGSAGG [r6_560_JUSTAS]
[1]
  folding stability dG unfold: 0.2 ± 0.13 kcal/mol
[2]
  folding stability dG unfold: 1.05 ± 0.1 kcal/mol
[3]
  folding stability dG unfold: 0.834 ± 0.2 kcal/mol
